Key:
His-tagged huCB1-ND = molecular target: T1, His-tagged huCB1-ND (human, UniProt P21554 99-414, limits assumed); test: flow cytometry, yeast-displayed Fab, 0.5 nM CB1 ND
T1 construct: The real construct may be truncated or engineered; also called CB1-nanodisc; not shown: histidine purification tag

GFP-fused huCB1-SMALP [1] = molecular target: T2, GFP-fused huCB1-SMALP (human, UniProt P21554 1-472); test: flow cytometry, yeast-displayed Fab, 5 nM CB1 SMALP
T2 construct: Human CB1 fused to GFP in styrene maleic acid lipoparticles, made as in Luna et al. 2018; also called huCB1-GFP-SMALP; GFP-tagged huCB1-SMALP; not shown: GFP fused to huCB1

Empty ND = molecular target: T3, Empty ND; test: flow cytometry, yeast-displayed Fab, 50 nM Empty ND
T3 construct: It carries no receptor; the scaffold is its only protein; also called empty nanodisc

GFP-fused huCB1-SMALP [2] = molecular target: T2, GFP-fused huCB1-SMALP; test: flow cytometry, yeast-displayed Fab, 10 nM CB1 SMALP
[3] = molecular target: human CB1 on stably transfected CB1 CHO cells (human, UniProt P21554 1-472); test: cell-based or functional assay
Chain of human CB1 on stably transfected CB1 CHO cells (P21554 whole entry): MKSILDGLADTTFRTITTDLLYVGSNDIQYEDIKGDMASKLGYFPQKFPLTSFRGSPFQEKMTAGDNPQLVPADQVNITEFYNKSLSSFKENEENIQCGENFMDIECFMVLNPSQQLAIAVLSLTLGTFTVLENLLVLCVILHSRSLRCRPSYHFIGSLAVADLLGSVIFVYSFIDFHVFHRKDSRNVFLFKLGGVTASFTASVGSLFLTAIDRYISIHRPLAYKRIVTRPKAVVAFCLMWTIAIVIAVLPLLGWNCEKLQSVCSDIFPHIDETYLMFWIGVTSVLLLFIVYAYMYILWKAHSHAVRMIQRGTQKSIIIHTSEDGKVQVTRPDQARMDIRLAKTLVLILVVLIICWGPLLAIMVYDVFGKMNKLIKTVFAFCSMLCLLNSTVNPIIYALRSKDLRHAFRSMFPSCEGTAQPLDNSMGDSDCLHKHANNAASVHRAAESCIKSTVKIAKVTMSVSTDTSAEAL

T1 sequence (P21554 99-414 limits assumed): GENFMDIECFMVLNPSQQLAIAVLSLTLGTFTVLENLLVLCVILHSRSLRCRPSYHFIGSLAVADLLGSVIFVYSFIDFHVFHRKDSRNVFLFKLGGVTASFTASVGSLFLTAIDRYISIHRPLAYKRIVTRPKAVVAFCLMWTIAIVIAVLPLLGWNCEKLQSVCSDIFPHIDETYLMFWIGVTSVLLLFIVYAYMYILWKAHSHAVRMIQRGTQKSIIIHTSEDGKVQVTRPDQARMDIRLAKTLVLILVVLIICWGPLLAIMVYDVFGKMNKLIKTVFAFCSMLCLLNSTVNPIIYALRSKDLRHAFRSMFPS
T2 sequence (P21554 whole entry, the tested form may be a part): as the sequence (P21554 whole entry) above

| Binder | relative binding fold change compared to LIBC523797-1(Fab) (His-tagged huCB1-ND) | relative binding fold change compared to LIBC523797-1(Fab) (GFP-fused huCB1-SMALP [1]) | relative binding fold change compared to LIBC523797-1(Fab) (Empty ND) | relative binding fold change compared to LIBC523797-1(Fab) (GFP-fused huCB1-SMALP [2]) | IC50 (nM, n = 4), antagonist activity, TR-FRET cAMP assay [3] |
| --- | --- | --- | --- | --- | --- |
| LIBC674002-1 (Fab on yeast) (Fab, V domains shown, Clone of the Fab-yeast libraries) VH: QVQLQESGPGLVKPSQTLSLTCTVSGGSIRRGGDYWSWIRQHPGKGLEWIGHIYYKGSTEYNPSLRGRVRISVNTYKNQFSLKLSSVTAADTAVYYCARGYDVSGYSYYYYGLDVWGQGTTVTVSS VL: not shown | 0.46 fold | 1.49 fold | 0.03 fold | 2.59 fold |  |
| LIBC674216-1 (Fab on yeast) (Fab, V domains shown, Clone of the Fab-yeast libraries) VH: QVQLQESGPGLVKPSQTLSLTCTVSGGSIRRGGDYWSWIRQHPGKGLEWIGHIYYTGQTAYNPSLRNRVRISVNTYKNQFSLKLSSVTAADTAVYYCARGYDISGYSYYYYGLDVWGQGTTVTVSS VL: not shown | 1.66 fold | 1.1 fold | 0.65 fold | 1.96 fold |  |
| LIBC674200-1 (Fab on yeast) (Fab, V domains shown, Original clone of the Fab-yeast libraries, without the LC G76D reversion) VH: QVQLQESGPGLVKPSQTLSLTCTVSGGSIRRGGDYWSWIRQHPGKGLEWIGHVYYTGQTAYNPNFRNRVRISVNTYKNQFSLKLSSVTAADTAVYYCARGYDVSGYSYYYYGMDVWGQGTTVTVSS VL: DIVMTQSPLSLPVTPGEPASISCRSSQSLLHRSGYNYLDWYLQKPGQSPQLLIYLGSNRASGVPGRFSGSGSGTDFTLKISRVEAEDVGVYYCMQSLQTPRTFGQGTKVEIKR | 2.08 fold | 1.33 fold | 0.74 fold | 3.31 fold |  |
| LIBC674229-1 (Fab on yeast) (Fab, V domains shown, Clone of the Fab-yeast libraries) VH: QVQLQESGPGLVKPSQTLSLTCTVSGGSIRRGGDYWSWIRQHPGKGLEWIGHIYQTGQTKYNPSFKGRVRISVNTYKNQFSLKLSSVTAADTAVYYCARGYDVSGYSYYYYGMDVWGQGTTVTVSS VL: DIVMTQSPLSLPVTPGEPASISCRSSQSLLHRSGYNYLDWYLQKPGQSPQLLIYQGSNRASGVPDRFSGSGSGTDFTLKISRVEAEDVGVYYCMQSLQTPRTFGQGTKVEIKR | 2.22 fold | 1.11 fold | 0.75 fold | 3.17 fold |  |
| LIBC674257-1 (Fab on yeast) (Fab, V domains shown, Clone of the Fab-yeast libraries) VH: QVQLQESGPGLVKPSQTLSLTCTVSGGSIRRGGDYWSWIRQHPGKGLEWIGHIYYTGQTKYNPSLRGRVRISVNTYKNQFSLKLSSVTAADTAVYYCARGYDISGYSYYYYGLDVWGQGTTVTVSS VL: not shown | 1.86 fold | 1.19 fold | 0.73 fold | 3.34 fold |  |
| LIBC674276-1 (Fab on yeast) (Fab, V domains shown, Clone of the Fab-yeast libraries) VH: QVQLQESGPGLVKPSQTLSLTCTVSGGSIRRGGDYWSWIRQHPGKGLEWIGHVYYTGSTTYNPNFKGRVRISVNTYKNQFSLKLSSVTAADTAVYYCARGYDASGYSYYYYGLDVWGQGTTVTVSS VL: not shown | 2.04 fold | 1.17 fold | 0.51 fold | 2.06 fold |  |
| LIBC674035-1 (Fab on yeast) (Fab, V domains shown, Clone of the Fab-yeast libraries) VH: QVQLQESGPGLVKPSQTLSLTCTVSGGSIRRGGDYWSWIRQHPGKGLEWIGHIYYAGQTKYNPSFKNRVRISVNTYKNQFSLKLSSVTAADTAVYYCARGYDISGYSYYYYGLDVWGQGTTVTVSS VL: not shown | 0.52 fold | 1.29 fold | 0.56 fold | 2.74 fold |  |
| LIBC674043-1 (Fab on yeast) (Fab, V domains shown, Original clone of the Fab-yeast libraries, without the R149S reversion) VH: QVQLQESGPGLVKPSQTLSLTCTVSGGSIRRGGDYWSWIRQHPGKGLEWIGHIYYTGQTTYNPNFKGRVRISVNTYKNQFSLKLSSVTAADTAVYYCARGYDASGYSYYYYGMDVWGQGTTVTVSR VL: not shown | 1.85 fold | 1.2 fold | 0.75 fold | 3.23 fold |  |
| LIBC674235-1 (Fab on yeast) (Fab, V domains shown, Clone of the Fab-yeast libraries) VH: QVQLQESGPGLVKPSQTLSLTCTVSGGSIRRGGDYWSWIRQHPGKGLEWIGHVYYAGSTTYNPSLKSRVRISVNTYKNQFSLKLSSVTAADTAVYYCARGYDVSGYSYYYYGLDVWGQGTTVTVSS VL: not shown | 1.28 fold | 1.3 fold | 0.72 fold | 2.05 fold |  |
| LIBC674214-1 (Fab on yeast) (Fab, V domains shown, Clone of the Fab-yeast libraries) VH: QVQLQESGPGLVKPSQTLSLTCTVSGGSIRRGGDYWSWIRQHPGKGLEWIGHVYYEGSTKYNPSFRGRVRISVNTYKNQFSLKLSSVTAADTAVYYCARGYDVSGYSYYYYGLDVWGQGTTVTVSS VL: not shown | 1.76 fold | 1.17 fold | 1.09 fold | 2.1 fold |  |
| LIBC674090-1 (Fab on yeast) (Fab, V domains shown, Clone of the Fab-yeast libraries) VH: QVQLQESGPGLVKPSQTLSLTCTVSGGSIRRGGDYWSWIRQHPGKGLEWIGHIYYAGSTAYNPNFRGRVRISVNTYKNQFSLKLSSVTAADTAVYYCARGYDTSGYSYYYYGLDVWGQGTTVTVSS VL: DIVMTQSPLSLPVTPGEPASISCRSSQSLLHRSGYNYLDWYLQKPGQSPQLLIYQGSNRASGVPDRFSGSGSGTDFTLKISRVEAEDVGVYYCMQSLQTPRTFGQGTKVEIKR | 1.35 fold | 1.2 fold | 0.99 fold | 2.85 fold |  |
| LIBC674024-1 (Fab on yeast) (Fab, V domains shown, Clone of the Fab-yeast libraries) VH: QVQLQESGPGLVKPSQTLSLTCTVSGGSIRRGGDYWSWIRQHPGKGLEWIGHVYQTGSTKYNPSFKNRVRISVNTYKNQFSLKLSSVTAADTAVYYCARGYDVSGYSYYYYGLDVWGQGTTVTVSS VL: not shown | 0.49 fold | 1.24 fold | 0.55 fold | 2.39 fold |  |
| LIBC673952-1 (IgG1 SEFL2 mAb) (antibody, V domains shown) VH: QVQLQESGPGLVKPSQTLSLTCTVSGGSIRRGGDYWSWIRQHPGKGLEWIGHVYYTGQTTYNPSFRGRVTISVNTYKNQFSLKLSSVTAADTAVYYCARDYDILTGYSYYYYGLDVWGQGTTVTVSS VL: DIVMTQSPLSLPVTPGEPASISCRSSQSLLHRSGYNYLDWYLQKPGQSPQLLIYQGSNRASGVPDRFSGSGSGTDFTLKISRVEAEDVGVYYCRQARALPRTFGQGTKVEIKR |  |  |  |  | 2.48 nM |
| LIBC673952-1 (Fab on yeast) (Fab, V domains shown, Clone of the Fab-yeast libraries) VH: QVQLQESGPGLVKPSQTLSLTCTVSGGSIRRGGDYWSWIRQHPGKGLEWIGHVYYTGQTTYNPSFRGRVTISVNTYKNQFSLKLSSVTAADTAVYYCARDYDILTGYSYYYYGLDVWGQGTTVTVSS VL: DIVMTQSPLSLPVTPGEPASISCRSSQSLLHRSGYNYLDWYLQKPGQSPQLLIYQGSNRASGVPDRFSGSGSGTDFTLKISRVEAEDVGVYYCRQARALPRTFGQGTKVEIKR | 0.77 fold | 1.23 fold | 0.62 fold | 1.91 fold |  |
